Experimental data taken from paper PMC3136511.

Molecular target: Nup145N(443–605) (Saccharomyces cerevisiae) (UniProt P49687)
Experiment: SAXS

dimer fraction: 98%
stoichiometry N: 2
Substance: Nup145N(443–605) (from UniProt P49687 443-605) (domain or fragment)
